For experiment [1], the target named is FcRn (Sino Biological Inc, CT009-H08H) (UniProt P55899). Description: SPR (Biacore X100), FcRn-His captured on anti-His IgG chip, antibody as analyte, steady-state affinity fit; mean of the two runs. (SPR reads the build-up and loss of mass on a sensor chip optically.)
Experiment [2] shares this target. Description: SPR (Biacore X100), FcRn-His captured on anti-His IgG chip, antibody as analyte, steady-state affinity fit; second run.
For experiment [3] the target is unchanged. Put plainly: SPR (Biacore X100), FcRn-His captured on anti-His IgG chip, antibody as analyte, steady-state affinity fit; first run.

Experimental findings from patent US20180022820A1 are described below.

pKd: −log10 of the molar value.

Sequence of UniProt P55899 (P55899 24-297 limits assumed, chain 1 of 2): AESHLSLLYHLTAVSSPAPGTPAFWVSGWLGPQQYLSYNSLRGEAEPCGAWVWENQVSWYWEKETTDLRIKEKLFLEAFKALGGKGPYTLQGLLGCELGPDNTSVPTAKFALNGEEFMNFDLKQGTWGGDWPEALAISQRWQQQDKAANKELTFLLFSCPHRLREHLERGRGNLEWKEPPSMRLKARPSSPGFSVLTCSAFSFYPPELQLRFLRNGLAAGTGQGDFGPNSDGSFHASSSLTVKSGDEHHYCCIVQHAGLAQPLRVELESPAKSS
Sequence of UniProt P55899 (P61769 21-119 limits assumed, chain 2 of 2, further chain): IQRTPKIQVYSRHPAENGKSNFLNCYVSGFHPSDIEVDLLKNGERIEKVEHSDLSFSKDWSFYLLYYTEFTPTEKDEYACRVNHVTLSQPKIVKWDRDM

For “MIL41: a PERJETA sample as prepared by the inventors, which is in consistence with the amino acid sequence of PERJETA (antibody)”, the values for the pKd in experiment [1], in experiment [2] and in experiment [3] were 6.31, 6.35 and 6.27, respectively.

The pKd is the negative decadic logarithm of the Kd, by convention in mol/L. Read a high pKd as a small Kd.
